Laboratory results from PMC3159454.

Target: Elk-1 ETS domain (Elk-ets), recombinant
Experiment: SEC

Elk-1 ETS domain (Elk-ets), recombinant (domain or fragment)
stoichiometry N: 2
